In paper PMC10786891, “Massively parallel profiling of RNA-targeting CRISPR-Cas13d”:

T1: EsCas13d, nuclease-dead (Eubacterium siraeum, UniProt B0MS50, R295A;H300A;R849A;H854A)
T1 sequence: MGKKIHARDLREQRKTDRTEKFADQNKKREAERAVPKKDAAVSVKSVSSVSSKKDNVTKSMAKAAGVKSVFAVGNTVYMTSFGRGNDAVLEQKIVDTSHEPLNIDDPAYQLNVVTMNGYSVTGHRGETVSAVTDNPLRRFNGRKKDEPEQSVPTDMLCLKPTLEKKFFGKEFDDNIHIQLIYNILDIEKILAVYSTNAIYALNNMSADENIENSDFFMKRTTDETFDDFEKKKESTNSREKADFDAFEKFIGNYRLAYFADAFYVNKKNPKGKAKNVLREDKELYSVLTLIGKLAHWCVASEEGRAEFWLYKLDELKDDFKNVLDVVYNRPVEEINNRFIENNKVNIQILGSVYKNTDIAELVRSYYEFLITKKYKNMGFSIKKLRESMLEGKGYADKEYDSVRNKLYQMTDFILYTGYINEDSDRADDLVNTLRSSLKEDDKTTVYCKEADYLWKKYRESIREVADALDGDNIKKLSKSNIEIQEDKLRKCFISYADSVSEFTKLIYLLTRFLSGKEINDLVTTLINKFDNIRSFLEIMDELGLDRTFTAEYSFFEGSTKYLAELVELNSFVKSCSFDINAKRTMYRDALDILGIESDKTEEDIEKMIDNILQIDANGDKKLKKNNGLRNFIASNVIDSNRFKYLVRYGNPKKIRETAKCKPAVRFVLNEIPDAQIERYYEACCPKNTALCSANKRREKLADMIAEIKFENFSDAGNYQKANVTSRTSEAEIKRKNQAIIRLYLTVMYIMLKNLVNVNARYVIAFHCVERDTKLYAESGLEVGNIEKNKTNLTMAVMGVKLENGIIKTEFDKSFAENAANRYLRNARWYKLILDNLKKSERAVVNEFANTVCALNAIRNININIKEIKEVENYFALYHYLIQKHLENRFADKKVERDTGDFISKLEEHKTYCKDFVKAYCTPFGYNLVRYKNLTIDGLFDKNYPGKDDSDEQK


Target: T1, EsCas13d, nuclease-dead
Assay: crRNA (strand 1, pre-loaded); Mg2+; 40 mM Tris-HCl pH 7.5, 150 mM NaCl, 6 mM MgCl2, 1 mM DTT, 0.1% Tween-20, 0.2 mg/ml BSA; 25 C; 10 min per concentration, then washed
Conditions: tags: His6-TwinStrep-SUMO cleaved; N-terminal SNAP kept (SNAP-Surface 488); label: 3' end held by stalled T7 RNA polymerase

Binder	Kd
target 3 C6A,A18G (mixed) RNA 1: CACCCGUGCAAAAUUGCAGGGGUCUAAAACGACCUGAAUAUUUCAGAUCAAA RNA 2: GGGAAUGGAUCCACAUCUACGAAUUCGUUUUUGGUCUGAAAUAUUAAGGUCUGCAGAUCGGAAGAGCACACGU	55.5 ± 10.5 nM
target 3 U2G,G3U (mixed) RNA 1: CACCCGUGCAAAAUUGCAGGGGUCUAAAACGACCUGAAUAUUUCAGAUCAAA RNA 2: GGGAAUGGAUCCACAUCUACGAAUUCGUUUUUGAUCUGAAAUAUUCAGUGCUGCAGAUCGGAAGAGCACACGU	9.2 ± 0.8 nM
target 3 G3U,C6G (mixed) RNA 1: CACCCGUGCAAAAUUGCAGGGGUCUAAAACGACCUGAAUAUUUCAGAUCAAA RNA 2: GGGAAUGGAUCCACAUCUACGAAUUCGUUUUUGAUCUGAAAUAUUGAGUUCUGCAGAUCGGAAGAGCACACGU	56.5 ± 11.5 nM
target 3 insA 3' of 10,insC 3' of 5 (mixed) RNA 1: CACCCGUGCAAAAUUGCAGGGGUCUAAAACGACCUGAAUAUUUCAGAUCAAA RNA 2: GGGAAUGGAUCCACAUCUACGAAUUCGUUUUUGAUCUGAAAUAAUUCACGGUCUGCAGAUCGGAAGAGCACACGU	74.5 ± 11.5 nM
target 3 insA 3' of 22,insA 3' of 22 (mixed) RNA 1: CACCCGUGCAAAAUUGCAGGGGUCUAAAACGACCUGAAUAUUUCAGAUCAAA RNA 2: GGGAAUGGAUCCACAUCUACGAAUUCGUUUAAUUGAUCUGAAAUAUUCAGGUCUGCAGAUCGGAAGAGCACACGU	19.4 ± 2.45 nM
target 3 A5G,U7A (mixed) RNA 1: CACCCGUGCAAAAUUGCAGGGGUCUAAAACGACCUGAAUAUUUCAGAUCAAA RNA 2: GGGAAUGGAUCCACAUCUACGAAUUCGUUUUUGAUCUGAAAUAUACGGGUCUGCAGAUCGGAAGAGCACACGU	37 ± 5.5 nM
target 3 insU 3' of 22,insA 3' of 7 (mixed) RNA 1: CACCCGUGCAAAAUUGCAGGGGUCUAAAACGACCUGAAUAUUUCAGAUCAAA RNA 2: GGGAAUGGAUCCACAUCUACGAAUUCGUUUUUUGAUCUGAAAUAUUACAGGUCUGCAGAUCGGAAGAGCACACGU	68.5 ± 19 nM
target 3 insC 3' of 4 (mixed) RNA 1: CACCCGUGCAAAAUUGCAGGGGUCUAAAACGACCUGAAUAUUUCAGAUCAAA RNA 2: GGGAAUGGAUCCACAUCUACGAAUUCGUUUUUGAUCUGAAAUAUUCAGCGUCUGCAGAUCGGAAGAGCACACGU	19 ± 2.45 nM
target 3 insU 3' of 22,insC 3' of 5 (mixed) RNA 1: CACCCGUGCAAAAUUGCAGGGGUCUAAAACGACCUGAAUAUUUCAGAUCAAA RNA 2: GGGAAUGGAUCCACAUCUACGAAUUCGUUUUUUGAUCUGAAAUAUUCACGGUCUGCAGAUCGGAAGAGCACACGU	24.1 ± 2.9 nM
target 3 insA 3' of 8,insU 3' of 6 (mixed) RNA 1: CACCCGUGCAAAAUUGCAGGGGUCUAAAACGACCUGAAUAUUUCAGAUCAAA RNA 2: GGGAAUGGAUCCACAUCUACGAAUUCGUUUUUGAUCUGAAAUAUAUCUAGGUCUGCAGAUCGGAAGAGCACACGU	34.2 ± 3.35 nM
target 3 insG 3' of 7,insA 3' of 4 (mixed) RNA 1: CACCCGUGCAAAAUUGCAGGGGUCUAAAACGACCUGAAUAUUUCAGAUCAAA RNA 2: GGGAAUGGAUCCACAUCUACGAAUUCGUUUUUGAUCUGAAAUAUUGCAGAGUCUGCAGAUCGGAAGAGCACACGU	88 ± 17.5 nM
target 3 U7A,U8C (mixed) RNA 1: CACCCGUGCAAAAUUGCAGGGGUCUAAAACGACCUGAAUAUUUCAGAUCAAA RNA 2: GGGAAUGGAUCCACAUCUACGAAUUCGUUUUUGAUCUGAAAUACACAGGUCUGCAGAUCGGAAGAGCACACGU	59.5 ± 7 nM
target 3 U2G,C16U (mixed) RNA 1: CACCCGUGCAAAAUUGCAGGGGUCUAAAACGACCUGAAUAUUUCAGAUCAAA RNA 2: GGGAAUGGAUCCACAUCUACGAAUUCGUUUUUGAUUUGAAAUAUUCAGGGCUGCAGAUCGGAAGAGCACACGU	21.6 ± 2.7 nM
target 3 G4A,A12U (mixed) RNA 1: CACCCGUGCAAAAUUGCAGGGGUCUAAAACGACCUGAAUAUUUCAGAUCAAA RNA 2: GGGAAUGGAUCCACAUCUACGAAUUCGUUUUUGAUCUGAUAUAUUCAAGUCUGCAGAUCGGAAGAGCACACGU	72.5 ± 11 nM
target 3 insG 3' of 8,insA 3' of 6 (mixed) RNA 1: CACCCGUGCAAAAUUGCAGGGGUCUAAAACGACCUGAAUAUUUCAGAUCAAA RNA 2: GGGAAUGGAUCCACAUCUACGAAUUCGUUUUUGAUCUGAAAUAUGUCAAGGUCUGCAGAUCGGAAGAGCACACGU	43.5 ± 6 nM
target 3 insC 3' of 11,insC 3' of 5 (mixed) RNA 1: CACCCGUGCAAAAUUGCAGGGGUCUAAAACGACCUGAAUAUUUCAGAUCAAA RNA 2: GGGAAUGGAUCCACAUCUACGAAUUCGUUUUUGAUCUGAAACUAUUCACGGUCUGCAGAUCGGAAGAGCACACGU	88 ± 25 nM
target 3 U2G,U22G (mixed) RNA 1: CACCCGUGCAAAAUUGCAGGGGUCUAAAACGACCUGAAUAUUUCAGAUCAAA RNA 2: GGGAAUGGAUCCACAUCUACGAAUUCGUUGUUGAUCUGAAAUAUUCAGGGCUGCAGAUCGGAAGAGCACACGU	61.5 ± 14.5 nM
target 3 insC 3' of 2,insG 3' of 1 (mixed) RNA 1: CACCCGUGCAAAAUUGCAGGGGUCUAAAACGACCUGAAUAUUUCAGAUCAAA RNA 2: GGGAAUGGAUCCACAUCUACGAAUUCGUUUUUGAUCUGAAAUAUUCAGGUCCGUGCAGAUCGGAAGAGCACACGU	52 ± 12.5 nM
target 3 G3C,U8G (mixed) RNA 1: CACCCGUGCAAAAUUGCAGGGGUCUAAAACGACCUGAAUAUUUCAGAUCAAA RNA 2: GGGAAUGGAUCCACAUCUACGAAUUCGUUUUUGAUCUGAAAUAGUCAGCUCUGCAGAUCGGAAGAGCACACGU	88 ± 16.5 nM
target 3 insC 3' of 3,insC 3' of 3 (mixed) RNA 1: CACCCGUGCAAAAUUGCAGGGGUCUAAAACGACCUGAAUAUUUCAGAUCAAA RNA 2: GGGAAUGGAUCCACAUCUACGAAUUCGUUUUUGAUCUGAAAUAUUCAGGCCUCUGCAGAUCGGAAGAGCACACGU	39 ± 4 nM
target 3 insA 3' of 10,insU 3' of 4 (mixed) RNA 1: CACCCGUGCAAAAUUGCAGGGGUCUAAAACGACCUGAAUAUUUCAGAUCAAA RNA 2: GGGAAUGGAUCCACAUCUACGAAUUCGUUUUUGAUCUGAAAUAAUUCAGUGUCUGCAGAUCGGAAGAGCACACGU	59 ± 13 nM
target 3 insA 3' of 8,insG 3' of 2 (mixed) RNA 1: CACCCGUGCAAAAUUGCAGGGGUCUAAAACGACCUGAAUAUUUCAGAUCAAA RNA 2: GGGAAUGGAUCCACAUCUACGAAUUCGUUUUUGAUCUGAAAUAUAUCAGGUGCUGCAGAUCGGAAGAGCACACGU	36.5 ± 8.5 nM
target 1 complement block 4-13 (mixed) RNA 1: CACCCGUGCAAAAAUGCAGGGGUCUAAAACUGAGCGGAUAACCUCUCUAUGG RNA 2: GGGAAUGGAUCCACAUCUACGAAUUCGUACCAUAGAGACCAAUAGGCGUCACCGAGAUCGGAAGAGCACACGU	55 ± 6 nM
target 1 insU 3' of 12,insG 3' of 3 (mixed) RNA 1: CACCCGUGCAAAAAUGCAGGGGUCUAAAACUGAGCGGAUAACCUCUCUAUGG RNA 2: GGGAAUGGAUCCACAUCUACGAAUUCGUACCAUAGAGAGGUUUAUCCGCUGCACCGAGAUCGGAAGAGCACACGU	6.3 ± 0.4 nM
